Assay results from patent publication US20140308307A1 (University of Texas, published 2014).

Columns and labels:
[1] = molecular target: 30-kDa subunit of the cellular cleavage and polyadenylation specificity factor (CPSF30), human (human) (UniProt O95639); assay: cell-based or functional assay
[2] = molecular target: NS1A protein of the influenza A/PR8/34 (PR8) virus strain (influenza A virus A/PR8/34, UniProt P03496 1-230); assay: not described
Sequence of NS1A protein of the influenza A/PR8/34 (PR8) virus strain (P03496 whole entry): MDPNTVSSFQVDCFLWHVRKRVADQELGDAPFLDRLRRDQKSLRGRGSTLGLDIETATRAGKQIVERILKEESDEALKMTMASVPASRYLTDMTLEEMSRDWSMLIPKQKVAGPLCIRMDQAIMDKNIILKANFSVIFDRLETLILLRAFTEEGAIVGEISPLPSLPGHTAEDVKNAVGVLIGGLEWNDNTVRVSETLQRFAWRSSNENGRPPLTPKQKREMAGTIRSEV

Sequence of 30-kDa subunit of the cellular cleavage and polyadenylation specificity factor (CPSF30), human (human) (O95639 whole entry): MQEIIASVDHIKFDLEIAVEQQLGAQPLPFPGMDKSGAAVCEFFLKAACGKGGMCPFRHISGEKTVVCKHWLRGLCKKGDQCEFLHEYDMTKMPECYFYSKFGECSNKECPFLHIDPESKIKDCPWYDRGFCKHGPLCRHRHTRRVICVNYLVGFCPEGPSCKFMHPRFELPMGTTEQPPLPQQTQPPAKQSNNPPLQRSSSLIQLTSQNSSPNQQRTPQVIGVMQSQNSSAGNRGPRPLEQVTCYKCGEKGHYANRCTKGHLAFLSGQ

Molecule	rate of replication and virus yield during multiple cycle growth [1]	binding result [2]
HK97 NS1A protein with I at position 106 changed to M and L at 103 changed to F	100 fold	–
F2F3 fragment of CPSF30 (construct not stated) (other) SGEKTVVCKHWLRGLCKKGDQCEFLHEYDMTKMPECYFYSKFGECSNKECPFLHIDPESKI	–	no binding
